# Assay results reported in the supplement of paper PMC12042874.
# ± gives the uncertainty stated by the source.
# Experiment: amyloid nucleation score (Sup35N fusion, yeast selection) (log enrichment); library NNK2; higher = more nucleation; inactive = no reads after selection
# Method in brief: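 Random libraries were run with three technical output replicates. In each, psi-negative yeast expressing Sup35N fused to peptides of 20 random codons were induced 24 hours with 100 μM copper sulfate and grown 7 days at 30°C on medium lacking adenine and uracil, and input and output plasmid inserts were Illumina-sequenced. The nucleation score is the DiMSum log enrichment of output over input reads, centred on the mode score of non-aggregating sequences, and sequences under 100 input reads were excluded.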
row,Substance,amyloid nucleation score
1,GNWSVDGWQYCNRTHKCSYH,2.41 ± 0.059
2,RCGFNLFTS,-0.883 ± 0.76
3,STILTSVFMFWVCGCFNNKT,7.03 ± 0.078
4,RTWQCDDWSQYLLVVF,-0.1 ± 1
5,YLKFIKANVRTSGKKLA,-0.562 ± 1.1
6,FLVFYLVCGSGLYMNNGQFF,-0.908 ± 0.41
7,QSRSRIGFGQCGRFGTAWWV,0.605 ± 0.45
8,TCCKLEDSYSWSALKLTSLA,1.27 ± 0.35
9,PFGKPVYLIFPPGMLVIFRA,-0.603 ± 1.1
10,YNSTLKFLSKLKLVNIIGTV,-1.26 ± 1.1
11,FTGIRRGLWLS,0.405 ± 0.56
12,VEFILKVGYAFTATCPCGFW,-0.711 ± 0.79
13,MLWVYWLGCHVRSYNLGYLR,-0.255 ± 0.63
14,ACVWNDIEGMNTFTVNSFFL,3.39 ± 0.16
15,DCLYGRFRHRHG,5.723 ± 0.035
16,YHCENDEALIRDSGPSKTTK,0.485 ± 0.41
17,LGWINKWKRLSNIPIAKWHC,inactive
18,EPKFCGMDNHEL,3.78 ± 0.14
19,LLICDSMHHTM,0.275 ± 0.48
20,WHDNSSNGTGEGNFVRPVPV,1.13 ± 0.11
21,SSNLKYGKSIFGNSFLQSVF,-1.27 ± 0.62
22,GGRRCGFITIRETNRTLLAL,-0.28 ± 0.55

row,Substance,amyloid nucleation score
1,EWILTELYHWFNFFYCRDGV,-1.2 ± 1.1
2,SDTFS,0.68 ± 0.56
3,LLPWGVTMVERLFIPIRCSD,0.308 ± 0.35
4,MPAFWSWSERGLSVRILGPA,3.05 ± 0.084
5,IVYFGQVIIFMVMSNSVCSL,-1.38 ± 1
6,NNVPCEKHRHASMYINAA,-0.081 ± 1.1
7,YDNKASDVMVNYLRHICVYS,inactive
8,FNFIIAQE,-1.1 ± 1.1
9,RRVGLSGRTKMSG,0.048 ± 0.55
10,RNSLKARYWWGLSGLLKVW,-1.01 ± 0.55
11,LVYLELTELQLCDAFAKVKN,0.133 ± 0.25
12,WVSCVVCFWIDHESAALESV,8.784 ± 0.036
13,PEDLLGRWIIFSYVFTIYSI,inactive
14,RNFGAVAFWVGWHWVVFSVG,-0.588 ± 0.29
15,RSSRHLDAYIEAS,0.877 ± 0.28
16,TWGGFRY,1.76 ± 0.48
17,CYAIMNGVSFLDLIGGARET,5.85 ± 0.077
18,CDQYLIYNLSVSGMSIASRG,-0.497 ± 0.79
19,SGYWNGVIRTKSNNDTVYVK,-0.395 ± 0.22
20,TTLMWVWFIGFWP,6.139 ± 0.04
21,HSWVFLWRGNCSFWRDSFKV,inactive
22,VFSSNEYFPLYSVFIVSEIL,2.47 ± 0.074

row,Substance,amyloid nucleation score
1,RFSCTKFRGKGLFWMLKCVL,-0.835 ± 0.27
2,GQVRSFCTGEG,-0.677 ± 1
3,VSHFPGSPLTNKRSMLPAQM,2.01 ± 0.14
4,NIRWRGNPFPCIVRNSVGEI,0.097 ± 0.31
5,VKVRFFSHVNSMMSLKSIVV,inactive
6,AWLYFVLFNRVTCCMTNVEE,9.571 ± 0.037
7,KELYTSVSQGLCRYSISSCR,-0.786 ± 0.35
8,IAHCCFGQF,7.634 ± 0.074
9,VFVERMPVGFHPFRIKIILT,1.01 ± 0.59
10,GTIFMRALKNAVYASSRALI,-0.247 ± 0.54
11,TLRVS,-0.207 ± 0.36
12,VGIDYV,inactive
13,CFFTCC,9.912 ± 0.045
14,WMSVG,-0.081 ± 1.1
15,KGRFHNLTEPGRVQEKE,-1.32 ± 0.49
16,CSCEVALIIK,inactive
17,TLNRTW,0.166 ± 0.16
18,FNMFWVLGFTSRGTRGYSTS,3.9 ± 0.051
19,LYSLEKTCQVELCRRISTLL,-1.35 ± 0.75
20,YGQSRANDTDDPGWGTVMRL,0.3 ± 0.74
21,RMDGNLQGHDDCVNV,0.773 ± 0.29
22,GMKSFR,-1.68 ± 1.1

row,Substance,amyloid nucleation score
1,WGSEAHTDRVVQYWILALQR,1.19 ± 0.12
2,GWSYNLSETLKQSVESVLTS,1.42 ± 0.44
3,PREKLYITMNMADIGSSRHP,4.86 ± 0.051
4,FINSVVKLLLGNDMSCYSCH,5.65 ± 0.081
5,NFMNKMFALTWCCIDKILCG,-1.1 ± 0.78
6,LAPPKKAFISVKMSLDRYCV,-0.305 ± 0.26
7,YQIFNKLVAHFKYNYTQTDR,-0.902 ± 0.56
8,PLLGLRG,0.102 ± 1.1
9,CLSGLLIWAHHSLKLDVLIG,0.366 ± 0.64
10,FPIVFTTKCDIFLSYSLLPS,1.7 ± 0.13
11,CYISFWARRFDEYLSLLSFA,-0.343 ± 0.42
12,SLRWDYLHLVWRHAEGGYGK,6.678 ± 0.038
13,RFYKSNGPRF,-1.28 ± 0.78
14,FAHERHTIYRQVSIMMWRSM,0.426 ± 0.25
15,YYSLLLGSTKSVAN,-0.038 ± 0.33
16,ITGKTGVCSNNYTLKILGIV,-0.826 ± 0.33
17,KISSMAVI,0.069 ± 0.48
18,RCCFAARMYYGHTLASAVIR,1.38 ± 0.3
19,RELKCQCLERVLLRVRQCAM,6.821 ± 0.056
